In article PMC9352680, “A comprehensive thermodynamic model for RNA binding by the Saccharomyces cerevisiae Pumilio protein PUF4”:
Numbering of substitutions follows the chain as printed. In names and notes the source's numbering stands.

T1: PUF4 RNA-binding domain (Saccharomyces cerevisiae, UniProt P25339 537-888)
T1 sequence: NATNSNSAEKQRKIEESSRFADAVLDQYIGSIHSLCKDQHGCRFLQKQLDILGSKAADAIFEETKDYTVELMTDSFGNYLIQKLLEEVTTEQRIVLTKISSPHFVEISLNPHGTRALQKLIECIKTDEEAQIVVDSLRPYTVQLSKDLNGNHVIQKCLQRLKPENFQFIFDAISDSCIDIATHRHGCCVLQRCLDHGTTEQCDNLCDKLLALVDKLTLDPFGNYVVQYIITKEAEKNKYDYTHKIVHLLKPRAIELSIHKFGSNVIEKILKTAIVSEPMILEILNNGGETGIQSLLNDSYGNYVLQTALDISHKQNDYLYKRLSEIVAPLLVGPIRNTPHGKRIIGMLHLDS

B1: Ie_S3_P5E.1_K5.1_C5.1_H5.1_A5.1_F5.1_[+9CCTCT]_T5.1 (ssRNA)
RNA: ACAAACUGUAUUAUUCCUCUAACAAAC
B2: Ie_S3_P5E.1_K5.1_C5.1_H5.1_[+3CT]_A5.1_F5.1_T5.1 (ssRNA)
RNA: ACAAACUGUCUAUUAUUAACAAAC
B3: Ie_S3_P5E.1_K5.1_C5.1_H5.1_[+2CT]_A5.1_F5.1_T5.1 (ssRNA)
RNA: ACAAACUGCUUAUUAUUAACAAAC
B4: Ie_S3_P5E.1_K5.1_C5.1_H5.1_A5.1_[+7CTCTC]_F5.1_T5.1 (ssRNA)
RNA: ACAAACUGUAUUACUCUCUUAACAAAC
B5: Ie_S3_P5E.1_K5.1_C5.1_H5.1_A5.1_[+6TCT]_F5.1_T5.1 (ssRNA)
RNA: ACAAACUGUAUUUCUAUUAACAAAC
B6: Ie_S3_P5E.1_K5.1_C5.1_H5.1_A5.1_[+7CTT]_F5.1_T5.1 (ssRNA)
RNA: ACAAACUGUAUUACUUUUAACAAAC
B7: Ie_S3_P5E.1_K5.1_C5.1_H5.1_A5.1_[+7CCC]_F5.1_T5.1 (ssRNA)
RNA: ACAAACUGUAUUACCCUUAACAAAC
B8: Ib_S2_P3E.1_K3.1_C3.1_H3.1_[T3C]_[A4G]_A3.1_F3.1_T3.1 (ssRNA)
RNA: UUUGAUUAAUAUGAUAUCGUUCUUUCUUGCGUAUAUUCUUUCUCGAUAUCAUAUUAAUCUUU
B9: Ib_S2_P3E.1_K3.1_C3.1_H3.1_[T1G]_A3.1_[A6G]_F3.1_T3.1 (ssRNA)
RNA: B8 RNA with U28G, C30U, G31A, A33G
B10: Ib_S2_P3E.1_K3.1_C3.1_H3.1_[T1C]_A3.1_[T5A]_F3.1_T3.1 (ssRNA)
RNA: B8 RNA with U28C, C30U, G31A, U32A
B11: Ib_S2_P3E.1_K3.1_C3.1_H3.1_[T1A]_A3.1_[T5C]_F3.1_T3.1 (ssRNA)
RNA: B8 RNA with U28A, C30U, G31A, U32C
B12: Ib_S2_P3E.1_K3.1_C3.1_H3.1_[T1G]_A3.1_[A6T]_F3.1_T3.1 (ssRNA)
RNA: B8 RNA with U28G, C30U, G31A, A33U
B13: Ie_S3_P4E.1_K4.1_C4.1_H4.1_A4.1_F4.1_[+8TCTC]_T4.1 (ssRNA)
RNA: ACAAACUGUAUAUUUCUCAACAAAC
B14: Ie_S3_P5E.1_K5.1_C5.1_H5.1_[+2CCTC]_A5.1_F5.1_T5.1 (ssRNA)
RNA: ACAAACUGCCUCUAUUAUUAACAAAC
B15: Ie_S3_P5E.1_K5.1_C5.1_H5.1_[+2TCTCT]_A5.1_F5.1_T5.1 (ssRNA)
RNA: ACAAACUGUCUCUUAUUAUUAACAAAC
B16: Ie_S3_P5E.1_K5.1_C5.1_H5.1_A5.1_F5.1_[+8TTCC]_T5.1 (ssRNA)
RNA: ACAAACUGUAUUAUUUCCUAACAAAC
B17: Ie_S3_P5E.1_K5.1_C5.1_H5.1_[+3CTCT]_A5.1_F5.1_T5.1 (ssRNA)
RNA: ACAAACUGUCUCUAUUAUUAACAAAC
B18: Ie_S3_P4E.1_K4.1_C4.1_H4.1_[+4TTCC]_A4.1_F4.1_T4.1 (ssRNA)
RNA: ACAAACUGUAUUCCUAUUAACAAAC
B19: Ie_S3_P5E.1_K5.1_C5.1_H5.1_[+4CTC]_A5.1_F5.1_T5.1 (ssRNA)
RNA: ACAAACUGUACUCUUAUUAACAAAC
B20: Ie_S3_P5E.1_K5.1_C5.1_H5.1_A5.1_F5.1_[+8TTC]_T5.1 (ssRNA)
RNA: ACAAACUGUAUUAUUUCUAACAAAC
B21: Ie_S3_P4E.1_K4.1_C4.1_H4.1_[+1CTCTC]_A4.1_F4.1_T4.1 (ssRNA)
RNA: ACAAACUCUCUCGUAUAUUAACAAAC
B22: Ie_S3_P4E.1_K4.1_C4.1_H4.1_[+2CCTC]_A4.1_F4.1_T4.1 (ssRNA)
RNA: ACAAACUGCCUCUAUAUUAACAAAC
B23: Ie_S3_P4E.1_K4.1_C4.1_H4.1_[+2CTT]_A4.1_F4.1_T4.1 (ssRNA)
RNA: ACAAACUGCUUUAUAUUAACAAAC
B24: Ie_S3_P5E.1_K5.1_C5.1_H5.1_[+4CCCTT]_A5.1_F5.1_T5.1 (ssRNA)
RNA: ACAAACUGUACCCUUUUAUUAACAAAC
B25: Ie_S3_P3E.2_K3.1_C3.2_H3.1_[+1TTCC]_A3.1_F3.1_T3.2 (ssRNA)
RNA: ACAAACCUUUUCCGUAUAUAUAACAAAC
B26: Ie_S3_P5E.1_K5.1_C5.1_H5.1_A5.1_[+5CTCTC]_F5.1_T5.1 (ssRNA)
RNA: ACAAACUGUAUCUCUCUAUUAACAAAC
B27: Ie_S3_P5E.1_K5.1_C5.1_H5.1_A5.1_F5.1_[+9CCC]_T5.1 (ssRNA)
RNA: ACAAACUGUAUUAUUCCCAACAAAC
B28: Ie_S3_P5E.1_K5.1_C5.1_H5.1_[+2CTT]_A5.1_F5.1_T5.1 (ssRNA)
RNA: ACAAACUGCUUUAUUAUUAACAAAC
B29: Ie_S3_P5E.1_K5.1_C5.1_H5.1_[+2TCC]_A5.1_F5.1_T5.1 (ssRNA)
RNA: ACAAACUGUCCUAUUAUUAACAAAC
B30: Ie_S3_P4E.1_K4.1_C4.1_H4.1_[+3CCCT]_A4.1_F4.1_T4.1 (ssRNA)
RNA: ACAAACUGUCCCUAUAUUAACAAAC
B31: Ie_S3_P5E.1_K5.1_C5.1_H5.1_A5.1_[+5CCCTT]_F5.1_T5.1 (ssRNA)
RNA: ACAAACUGUAUCCCUUUAUUAACAAAC
B32: Ie_S3_P5E.1_K5.1_C5.1_H5.1_[+1CTC]_A5.1_F5.1_T5.1 (ssRNA)
RNA: ACAAACUCUCGUAUUAUUAACAAAC
B33: Ie_S3_P4E.1_K4.1_C4.1_H4.1_A4.1_[+7TCTC]_F4.1_T4.1 (ssRNA)
RNA: ACAAACUGUAUAUUCUCUAACAAAC
B34: Ie_S3_P5E.1_K5.1_C5.1_H5.1_[+3CCCTT]_A5.1_F5.1_T5.1 (ssRNA)
RNA: ACAAACUGUCCCUUAUUAUUAACAAAC
B35: Ie_S3_P5E.1_K5.1_C5.1_H5.1_A5.1_F5.1_[+8CTCTC]_T5.1 (ssRNA)
RNA: ACAAACUGUAUUAUCUCUCUAACAAAC
B36: Ie_S3_P5E.1_K5.1_C5.1_H5.1_A5.1_F5.1_[+9CTC]_T5.1 (ssRNA)
RNA: ACAAACUGUAUUAUUCUCAACAAAC
B37: Ie_S3_P4E.1_K4.1_C4.1_H4.1_A4.1_F4.1_[+8CCCT]_T4.1 (ssRNA)
RNA: ACAAACUGUAUAUUCCCUAACAAAC
B38: Ie_S3_P4E.1_K4.1_C4.1_H4.1_[+3CCTC]_A4.1_F4.1_T4.1 (ssRNA)
RNA: ACAAACUGUCCUCAUAUUAACAAAC
B39: Ie_S3_P5E.1_K5.1_C5.1_H5.1_A5.1_[+7CCT]_F5.1_T5.1 (ssRNA)
RNA: ACAAACUGUAUUACCUUUAACAAAC
B40: Ie_S3_P5E.1_K5.1_C5.1_H5.1_A5.1_F5.1_[+9CCT]_T5.1 (ssRNA)
RNA: ACAAACUGUAUUAUUCCUAACAAAC
B41: Ie_S3_P5E.1_K5.1_C5.1_H5.1_[+4CCTCT]_A5.1_F5.1_T5.1 (ssRNA)
RNA: ACAAACUGUACCUCUUUAUUAACAAAC
B42: Ie_S3_P4E.1_K4.1_C4.1_H4.1_[+3CCT]_A4.1_F4.1_T4.1 (ssRNA)
RNA: ACAAACUGUCCUAUAUUAACAAAC
B43: Ie_S3_P4E.1_K4.1_C4.1_H4.1_[+2C]_A4.1_F4.1_T4.1 (ssRNA)
RNA: ACAAACUGCUAUAUUAACAAAC
B44: Ie_S3_P4E.1_K4.1_C4.1_H4.1_A4.1_[+7TCC]_F4.1_T4.1 (ssRNA)
RNA: ACAAACUGUAUAUUCCUAACAAAC
B45: Ie_S3_P5E.1_K5.1_C5.1_H5.1_A5.1_[+5CCC]_F5.1_T5.1 (ssRNA)
RNA: ACAAACUGUAUCCCUAUUAACAAAC
B46: Ie_S3_P4E.1_K4.1_C4.1_H4.1_[+4CCTC]_A4.1_F4.1_T4.1 (ssRNA)
RNA: ACAAACUGUACCUCUAUUAACAAAC
B47: Ie_S3_P4E.1_K4.1_C4.1_H4.1_[+2CTC]_A4.1_F4.1_T4.1 (ssRNA)
RNA: ACAAACUGCUCUAUAUUAACAAAC
B48: Ie_S3_P5E.1_K5.1_C5.1_H5.1_A5.1_F5.1_[+9TCTC]_T5.1 (ssRNA)
RNA: ACAAACUGUAUUAUUUCUCAACAAAC
B49: Ie_S3_P3E.2_K3.1_C3.2_H3.1_[+2CCCTT]_A3.1_F3.1_T3.2 (ssRNA)
RNA: ACAAACCUUGCCCUUUAUAUAUAACAAAC
B50: Ie_S3_P5E.1_K5.1_C5.1_H5.1_A5.1_F5.1_[+8CCC]_T5.1 (ssRNA)
RNA: ACAAACUGUAUUAUCCCUAACAAAC
B51: Ie_S3_P3E.2_K3.1_C3.2_H3.1_[+2CCTCT]_A3.1_F3.1_T3.2 (ssRNA)
RNA: ACAAACCUUGCCUCUUAUAUAUAACAAAC
B52: Ie_S3_P4E.1_K4.1_C4.1_H4.1_A4.1_F4.1_[+9TTCC]_T4.1 (ssRNA)
RNA: ACAAACUGUAUAUUAUUCCACAAAC
B53: Ie_S3_P4E.1_K4.1_C4.1_H4.1_[+2CCC]_A4.1_F4.1_T4.1 (ssRNA)
RNA: ACAAACUGCCCUAUAUUAACAAAC
B54: Ie_S3_P3E.2_K3.1_C3.2_H3.1_[+2CCT]_A3.1_F3.1_T3.2 (ssRNA)
RNA: ACAAACCUUGCCUUAUAUAUAACAAAC
B55: Ie_S3_P5E.1_K5.1_C5.1_H5.1_A5.1_[+6TCTCT]_F5.1_T5.1 (ssRNA)
RNA: ACAAACUGUAUUUCUCUAUUAACAAAC
B56: Ie_S3_P5E.1_K5.1_C5.1_H5.1_[+4CCTC]_A5.1_F5.1_T5.1 (ssRNA)
RNA: ACAAACUGUACCUCUUAUUAACAAAC
B57: Ie_S3_P4E.1_K4.1_C4.1_H4.1_A4.1_[+7CTCTC]_F4.1_T4.1 (ssRNA)
RNA: ACAAACUGUAUAUCUCUCUAACAAAC
B58: Ie_S3_P4E.1_K4.1_C4.1_H4.1_[+2CT]_A4.1_F4.1_T4.1 (ssRNA)
RNA: ACAAACUGCUUAUAUUAACAAAC
B59: Ie_S3_P5E.1_K5.1_C5.1_H5.1_A5.1_[+6CCC]_F5.1_T5.1 (ssRNA)
RNA: ACAAACUGUAUUCCCAUUAACAAAC
B60: Ie_S3_P5E.1_K5.1_C5.1_H5.1_A5.1_F5.1_[+9TTC]_T5.1 (ssRNA)
RNA: ACAAACUGUAUUAUUUUCAACAAAC

Target: T1, PUF4 RNA-binding domain
Test: Mg; RNA-MaP; 20 mM Na-HEPES pH 7.4, 30 mM KOAc, 0.75 mM MgCl2, 0.1% Tween-20, 5% glycerol, 0.1 mg/mL BSA, 2 mM DTT; 25 C; 0.0125-409.6 nM protein
Conditions: tags: N-His6-TEV cleaved; C-SNAP kept, Cy3B-labelled; label: tethered on chip by stalled RNA polymerase

Binder | Kd [nM]
B1 | 20.7
B2 | 28.6
B3 | > 2300
B4 | 128
B5 | 7.3
B6 | 115
B7 | 510
B8 | 1100
B9 | 277
B10 | > 2300
B11 | > 2300
B12 | > 2300
B13 | 8.77
B14 | > 2300
B15 | 513
B16 | 21.6
B17 | 366
B18 | 9.85
B19 | 7.73
B20 | 19.1

Binder | Kd [nM]
B21 | 69.5
B22 | > 2300
B23 | 896
B24 | 30.4
B25 | 1200
B26 | 30.4
B27 | 18.1
B28 | > 2300
B29 | 101
B30 | 602
B31 | 92.6
B32 | 1830
B33 | 6.81
B34 | 698
B35 | 29.1
B36 | 23
B37 | 6.57
B38 | 650
B39 | 221
B40 | 19.9

Binder | Kd [nM]
B41 | 52.5
B42 | 59.9
B43 | 672
B44 | 7.23
B45 | 24.3
B46 | 14.7
B47 | 1270
B48 | 19.4
B49 | 1020
B50 | 37.5
B51 | 1010
B52 | 0.554
B53 | 1560
B54 | 1170
B55 | 38.4
B56 | 27.2
B57 | 14.6
B58 | 1800
B59 | 203
B60 | 19.8
